Experimental data: article PMC7889028

Molecular target: head domain of PPRV ICV'89 strain H protein (residues 156-610) (peste des petits ruminants virus, strain Ivory Coast'89 (ICV'89))
Assay: SEC

head domain of PPRV ICV'89 strain H protein (residues 156-610) (domain or fragment)
stoichiometry N: 2
